Test results from patent US20260055173A1 (published 2026).

T1: mouse VEGF-A (mouse, UniProt Q00731-2 27-190, limits assumed)
T1 sequence (looked up): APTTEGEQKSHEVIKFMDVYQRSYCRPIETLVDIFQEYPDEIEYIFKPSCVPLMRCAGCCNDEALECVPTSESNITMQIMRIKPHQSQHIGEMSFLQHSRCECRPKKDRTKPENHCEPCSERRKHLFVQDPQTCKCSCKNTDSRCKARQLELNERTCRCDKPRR


Assays:
[1] = target: monkey PD-1 (ACRO, His tag) (monkey, UniProt B0LAJ3 25-170); experiment: ELISA, monkey PD-1 (His tag) coated, anti-human IgG Fc-HRP
Description: The binding of candidate molecules and competitor to antigens of different species was detected by ELISA. […] The binding of antibodies to monkey PD-1 was detected by ELISA. An ELISA plate was coated with 1 μg/mL monkey PD-1 (ACRO, His tag) overnight and blocked. Subsequently, the plate was added with gradient dilutions of the sample to be tested and the control antibody, incubated and washed. Then, the plate was added with HRP-labeled anti-human IgG Fc secondary antibody, incubated and washed. After TMB solution was added for color development, the OD450 absorbance value was read on a microplate reader (see Table 15).

[2] = target: T2, human PD-1 (ACRO, His tag) (human, UniProt Q15116 25-167); experiment: ELISA, human PD-1 (His tag) coated, anti-human IgG Fc-HRP
T2 construct: not shown: His tag
T2 sequence (Q15116 25-167 limits assumed): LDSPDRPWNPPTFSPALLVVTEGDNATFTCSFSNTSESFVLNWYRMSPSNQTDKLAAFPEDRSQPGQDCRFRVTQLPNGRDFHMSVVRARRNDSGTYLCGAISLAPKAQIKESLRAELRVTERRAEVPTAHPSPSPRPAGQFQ
Description: (§1) The binding of the antibody to human PD-1 was detected by ELISA. 1 μg/mL human PD-1 (ACRO, His tag) was coated on an ELISA plate overnight and blocked. Subsequently, the plate was added with gradient dilutions of the bispecific antibody and the control antibody, incubated and washed. Then, the plate was added with HRP-labeled anti-human IgG Fc secondary antibody, incubated and washed. After TMB solution was added for color development, the OD450 absorbance value was read on a microplate reader (see Table 12). […] Subsequently, the plate was added with gradient dilutions of the sample to be tested and the control antibody, incubated and washed. Then, the plated was added with HRP-labeled anti-human IgG Fc secondary antibody, incubated and washed. After TMB solution was added for color development, the OD450 absorbance value was read on a microplate reader (see Table 13). […] (The control substances were all obtained by in-house expression and purification)

[3] = target: T2, human PD-1 (ACRO, His tag); experiment: dual (bridging) ELISA: human PD-1 (His tag) coated, antibody, then biotinylated human VEGF, streptavidin-HRP
Description: (§2) The order of the binding to VEGF and PD-1 was changed for dual ELISA detection. A 96-well ELISA plate was coated with 1 μg/mL human PD-1 (ACRO, His tag) overnight, washed and blocked for 1 hour. […] TMB solution was added for color development, and the OD450 nm absorbance value was read on a microplate reader.

[4] = target: T3, human PD-1 (ACRO, Fc tag) (human, UniProt Q15116 25-167); experiment: competition ELISA: human PD-1 (Fc tag) coated, antibody mixed with human PD-L1 (His tag); text: 'except for #48, which only bound to VEGF'
T3 construct: not shown: Fc tag
T3 sequence (Q15116 25-167 limits assumed): as above
Description: (§3) An ELISA plate was coated with 1 ug/mL of human PD-1 (ACRO, Fc tag) overnight, washed and blocked. […] Then the plate was added with HRP-labeled anti-His antibody, and incubated for 1 hour. After TMB solution was added for color development, the OD450 absorbance value was read on a microplate reader (see Table 16).

[5] = target: T4, human VEGF (ACRO, His tag) (human, UniProt P15692-4 27-191, limits assumed); experiment: ELISA, human VEGF (His tag) coated, anti-human IgG Fc-HRP
T4 construct: not shown: His tag
Description: as §1

[6] = target: T2, human PD-1 (ACRO, His tag); experiment: dual (bridging) ELISA: human PD-1 (His tag) coated, antibody, then biotinylated human VEGF; 'A single targeting antibody failed to bind to two targets simultaneously'
Description: as §2

[7] = target: T5, biotin-labeled human VEGF (ACRO, biotinylated protein) (human, UniProt P15692-4 27-191, limits assumed, biotinylated (site not stated)); experiment: competition ELISA: human VEGFR2 (Fc tag) coated, antibody mixed with biotinylated human VEGF, streptavidin-HRP
Description: (§4) ELISA plates were respectively coated with 2 μg/mL human VEGFR1 and 5 μg/mL human VEGFR2 (in-house constructed and expressed, Fc tag) overnight, washed and blocked. […] Then the plates were added with HRP-labeled streptavidin and incubated for 1 hour. After TMB solution was added for color development, the OD450 nm absorbance value was read on a microplate reader.

[8] = target: VEGF; experiment: cell-based or functional assay
[9] = target: T5, biotin-labeled human VEGF (ACRO, …); experiment: competition ELISA: human VEGFR1 (Fc tag) coated, antibody mixed with biotinylated human VEGF, streptavidin-HRP
Description: as §4

[10] = target: T3, human PD-1 (ACRO, Fc tag); experiment: competition ELISA: human PD-1 (Fc tag) coated, antibody mixed with human PD-L1 (His tag), anti-His-HRP
Description: as §3

[11] = target: human VEGF (Sino Biological, no label) (human, UniProt P15692-4 27-191, limits assumed); experiment: dual (bridging) ELISA: human VEGF (no label) coated, antibody, then human PD-1 (His tag), anti-His-HRP
Description: Biological, no label) overnight, washed and blocked for 1 hour. Subsequently, the plate was added with gradient dilutions of the test antibody, incubated for 2 hours, then added with 1 μg/mL of human PD-1 (ACRO, His tag), incubated for 2 hours, washed, and incubated with HRP-labeled anti-His antibody for 1 hour. After TMB solution was added for color development, the OD450 nm absorbance value was read on a microplate reader.

[12] = target: human VEGF-A (human, UniProt P15692-4 27-191, limits assumed); experiment: ELISA, VHH-Fc expression supernatant on human VEGF-A
[13] = target: T1, mouse VEGF-A; experiment: ELISA, VHH-Fc expression supernatant on mouse VEGF-A

monkey PD-1 (ACRO, His tag), sequence (B0LAJ3 entry or part of it limits assumed, form in doubt): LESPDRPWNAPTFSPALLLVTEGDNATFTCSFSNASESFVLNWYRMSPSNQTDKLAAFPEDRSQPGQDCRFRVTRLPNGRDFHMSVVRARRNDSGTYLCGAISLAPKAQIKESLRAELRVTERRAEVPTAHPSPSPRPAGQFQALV

Row | Binder | TOP OD [1] | TOP OD [2] | TOP OD [3] | binding result [4] | EC50 [5] | TOP OD [5] | binding result [6] | IC50 [7] | EC50 [1] | EC50 [2] | EC50 [3] | maximum inhibition rate (HUVEC proliferation) [8] | IC50 [9] | IC50 [10] | EC50 [11] | EC50 [12] | EC50 [13]
1 | Strain #48 VHH (VHH, not shown: a dimerising Fc or GST, Humanized, stabilized variant of #6 (11 Kabat-numbered mutations)) VHH: EVQLLESGGGLVQPGGSLRLSCAASGFTFSTSTMSWYRQAPGKERELVSFITSAGATTYYADSVKGRFTMSRDNSKNTVYLQMNSLRAEDTAVYYCRALVTLWNVYWGQGTLVTVSS | – | – | 0.061 OD450 | no binding | 608 pM | 3.09 OD450 | no binding | 5840 pM | – | – | – | – | – | – | – | – | –
2 | #16 bispecific antibody (bispecific antibody, human IgG1, kappa, Pembrolizumab-based anti-PD-1 IgG with #48 VHH at the C-terminus of the heavy chain; 2+2 valency; functionally silent IgG1 Fc (AEASS)) heavy: QVQLVQSGVEVKKPGASVKVSCKASGYTFTNYYMYWVRQAPGQGLEWMGGINPSNGGTNFNEKFKNRVTLTTDSSTTTAYMELKSLQFDDTAVYYCARRDYRFDMGFDYWGQGTTVTVSSASTKGPSVFPLAPSSKSTSGGTAALGCLVKDYFPEPVTVSWNSGALTSGVHTFPAVLQSSGLYSLSSVVTVPSSSLGTQTYICNVNHKPSNTKVDKKVEPKSCDKTHTCPPCPAPEAEGAPSVFLFPPKPKDTLMISRTPEVTCVVVDVSHEDPEVKFNWYVDGVEVHNAKTKPREEQYNSTYRVVSVLTVLHQDWLNGKEYKCKVSNKALPSSIEKTISKAKGQPREPQVYTLPPSREEMTKNQVSLTCLVKGFYPSDIAVEWESNGQPENNYKTTPPVLDSDGSFFLYSKLTVDKSRWQQGNVFSCSVMHEALHNHYTQKSLSLSPGEVQLLESGGGLVQPGGSLRLSCAASGFTFSTSTMSWYRQAPGKERELVSFITSAGATTYYADSVKGRFTMSRDNSKNTVYLQMNSLRAEDTAVYYCRALVTLWNVYWGQGTLVTVSS light: EIVLTQSPATLSLSPGERATLSCRASKGVSTSGYSYLHWYQQKPGQAPRLLIYLASYLESGVPARFSGSGSGTDFTLTISSLEPEDFAVYYCQHSRDLPLTFGGGTKVEIKRTVAAPSVFIFPPSDEQLKSGTASVVCLLNNFYPREAKVQWKVDNALQSGNSQESVTEQDSKDSTYSLSSTLTLSKADYEKHKVYACEVTHQGLSSPVTKSFNRGEC | 3.38 OD450 | 2.58 OD450 | 3.65 OD450 | – | 579 pM | 1.75 OD450 | – | 3250 pM | 171 pM | 114 pM | 117 pM | ~60% | 507 pM | 2530 pM | 326 pM | – | –

Further lines, results first:

Row | TOP OD [1] | TOP OD [2] | TOP OD [3] | binding result [4] | EC50 [5] | TOP OD [5] | binding result [6] | IC50 [7] | EC50 [1] | EC50 [2] | EC50 [3] | maximum inhibition rate (HUVEC proliferation) [8] | IC50 [9] | IC50 [10] | EC50 [11] | EC50 [12] | EC50 [13] | Binder
3 | 0.127 OD450 | 0.151 OD450 | 0.067 OD450 | – | – | – | – | – | – | – | – | – | – | – | – | – | – | Bevacizumab (antibody, V domains shown) VH: EVQLVESGGGLVQPGGSLRLSCAASGYTFTNYGMNWVRQAPGKGLEWVGWINTYTGEPTYAADFKRRFTFSLDTSKSTAYLQMNSLRAEDTAVYYCAKYPHYYGSSHWYFDVWGQGTLVTVSS VL: DIQMTQSPSSLSASVGDRVTITCSASQDISNYLNWYQQKPGKAPKVLIYFTSSLHSGVPSRFSGSGSGTDFTLTISSLQPEDFATYYCQQYSTVPWTFGQGTKVEIK
4 | – | – | – | – | – | – | – | – | – | – | – | – | – | – | – | 9.33 ng/mL | 6.46 ng/mL | Strain #6 VHH (Fc fusion, also called strain 6 (#6); not shown: Fc of the VHH-Fc construct) QVQLQESGGGLVQPGGSLRLSCAASGFTFSTSTMSWYRQAPGKERELVAFITSAGATTNYADSVKDRFTMSRDNDKNTVYLQMNVLKPEDTAMYYCRALVTLWNVYWGQGTQVTVSS
